# According to the supplement of paper PMC10065799, “High-throughput profiling of sequence recognition by tyrosine kinases and SH2 domains using bacterial peptide display” (eLife, 2023):
# What was measured:
# EPHB2 = EPHB2 (UniProt P29323); assay: phosphorylation enrichment, bacterial display (enrichment ratio); higher = better substrate or ligand; peptides without Tyr show the background
# FGFR1 = FGFR1 (UniProt P11362); assay: as above
# FGFR3 = FGFR3 (UniProt P22607); assay: as above
# AncSZ = assay: as above
# Hck = Hck (UniProt P08631); assay: as above
# EPHB1 = EPHB1 (UniProt P54762); assay: as above
# EPHB1, sequence (P54762 whole entry, looked up): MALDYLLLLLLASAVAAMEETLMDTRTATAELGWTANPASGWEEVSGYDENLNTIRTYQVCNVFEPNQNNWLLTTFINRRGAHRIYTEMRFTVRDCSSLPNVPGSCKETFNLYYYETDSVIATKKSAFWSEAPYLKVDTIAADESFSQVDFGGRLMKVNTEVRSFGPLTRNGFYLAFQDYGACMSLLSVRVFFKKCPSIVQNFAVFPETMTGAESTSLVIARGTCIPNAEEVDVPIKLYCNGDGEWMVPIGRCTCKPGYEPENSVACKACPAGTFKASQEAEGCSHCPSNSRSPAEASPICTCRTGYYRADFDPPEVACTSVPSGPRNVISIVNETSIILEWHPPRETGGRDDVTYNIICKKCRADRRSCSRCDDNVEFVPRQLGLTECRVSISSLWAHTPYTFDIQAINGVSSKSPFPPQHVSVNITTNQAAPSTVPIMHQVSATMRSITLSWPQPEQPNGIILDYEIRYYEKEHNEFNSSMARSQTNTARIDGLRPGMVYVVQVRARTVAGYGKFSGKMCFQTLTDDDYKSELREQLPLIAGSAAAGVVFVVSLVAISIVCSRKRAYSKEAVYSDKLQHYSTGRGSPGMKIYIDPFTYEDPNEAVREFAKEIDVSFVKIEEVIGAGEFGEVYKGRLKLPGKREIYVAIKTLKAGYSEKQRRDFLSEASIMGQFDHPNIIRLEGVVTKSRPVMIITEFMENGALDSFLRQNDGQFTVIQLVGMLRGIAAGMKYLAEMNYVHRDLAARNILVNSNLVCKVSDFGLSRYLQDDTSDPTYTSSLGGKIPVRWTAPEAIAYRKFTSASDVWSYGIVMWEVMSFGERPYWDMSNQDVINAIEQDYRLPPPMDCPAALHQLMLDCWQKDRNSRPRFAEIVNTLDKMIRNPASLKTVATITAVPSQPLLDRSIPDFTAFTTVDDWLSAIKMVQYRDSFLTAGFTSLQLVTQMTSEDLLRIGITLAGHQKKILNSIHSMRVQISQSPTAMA
# Jak2 = Jak2 (UniProt O60674); assay: as above
# Jak2, sequence (O60674 whole entry, looked up): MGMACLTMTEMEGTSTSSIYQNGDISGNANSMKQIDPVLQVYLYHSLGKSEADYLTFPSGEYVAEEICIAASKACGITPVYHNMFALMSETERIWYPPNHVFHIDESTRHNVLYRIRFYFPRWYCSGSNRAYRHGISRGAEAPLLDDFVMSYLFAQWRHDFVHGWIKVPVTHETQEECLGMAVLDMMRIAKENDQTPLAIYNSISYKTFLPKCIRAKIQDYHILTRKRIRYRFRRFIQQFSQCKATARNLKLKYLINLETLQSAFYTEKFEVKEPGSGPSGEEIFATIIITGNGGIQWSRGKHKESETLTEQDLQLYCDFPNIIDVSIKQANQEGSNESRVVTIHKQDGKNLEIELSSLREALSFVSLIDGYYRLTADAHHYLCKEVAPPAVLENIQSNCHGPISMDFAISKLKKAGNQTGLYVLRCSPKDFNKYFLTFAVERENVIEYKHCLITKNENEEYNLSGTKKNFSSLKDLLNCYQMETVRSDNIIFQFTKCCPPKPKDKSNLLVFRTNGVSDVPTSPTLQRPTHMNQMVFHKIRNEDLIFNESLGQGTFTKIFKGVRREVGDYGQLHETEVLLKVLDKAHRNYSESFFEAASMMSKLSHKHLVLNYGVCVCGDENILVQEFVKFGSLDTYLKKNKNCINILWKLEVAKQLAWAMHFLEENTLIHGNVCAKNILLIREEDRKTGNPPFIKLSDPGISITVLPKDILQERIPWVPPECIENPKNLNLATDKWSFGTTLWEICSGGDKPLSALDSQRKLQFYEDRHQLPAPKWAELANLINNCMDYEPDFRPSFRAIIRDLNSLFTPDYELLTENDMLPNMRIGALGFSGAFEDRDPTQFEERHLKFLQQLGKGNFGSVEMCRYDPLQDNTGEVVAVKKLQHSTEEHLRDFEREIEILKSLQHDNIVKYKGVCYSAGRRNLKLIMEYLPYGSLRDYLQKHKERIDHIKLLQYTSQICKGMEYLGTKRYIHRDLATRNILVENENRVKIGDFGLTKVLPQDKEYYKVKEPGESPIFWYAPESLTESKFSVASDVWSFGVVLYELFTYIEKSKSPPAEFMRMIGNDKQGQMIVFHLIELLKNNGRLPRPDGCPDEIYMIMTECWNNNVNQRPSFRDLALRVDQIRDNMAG
# Fer (mouse) = assay: as above
# MERTK = MERTK (UniProt Q12866); assay: as above
# MERTK, sequence (Q12866 whole entry, looked up): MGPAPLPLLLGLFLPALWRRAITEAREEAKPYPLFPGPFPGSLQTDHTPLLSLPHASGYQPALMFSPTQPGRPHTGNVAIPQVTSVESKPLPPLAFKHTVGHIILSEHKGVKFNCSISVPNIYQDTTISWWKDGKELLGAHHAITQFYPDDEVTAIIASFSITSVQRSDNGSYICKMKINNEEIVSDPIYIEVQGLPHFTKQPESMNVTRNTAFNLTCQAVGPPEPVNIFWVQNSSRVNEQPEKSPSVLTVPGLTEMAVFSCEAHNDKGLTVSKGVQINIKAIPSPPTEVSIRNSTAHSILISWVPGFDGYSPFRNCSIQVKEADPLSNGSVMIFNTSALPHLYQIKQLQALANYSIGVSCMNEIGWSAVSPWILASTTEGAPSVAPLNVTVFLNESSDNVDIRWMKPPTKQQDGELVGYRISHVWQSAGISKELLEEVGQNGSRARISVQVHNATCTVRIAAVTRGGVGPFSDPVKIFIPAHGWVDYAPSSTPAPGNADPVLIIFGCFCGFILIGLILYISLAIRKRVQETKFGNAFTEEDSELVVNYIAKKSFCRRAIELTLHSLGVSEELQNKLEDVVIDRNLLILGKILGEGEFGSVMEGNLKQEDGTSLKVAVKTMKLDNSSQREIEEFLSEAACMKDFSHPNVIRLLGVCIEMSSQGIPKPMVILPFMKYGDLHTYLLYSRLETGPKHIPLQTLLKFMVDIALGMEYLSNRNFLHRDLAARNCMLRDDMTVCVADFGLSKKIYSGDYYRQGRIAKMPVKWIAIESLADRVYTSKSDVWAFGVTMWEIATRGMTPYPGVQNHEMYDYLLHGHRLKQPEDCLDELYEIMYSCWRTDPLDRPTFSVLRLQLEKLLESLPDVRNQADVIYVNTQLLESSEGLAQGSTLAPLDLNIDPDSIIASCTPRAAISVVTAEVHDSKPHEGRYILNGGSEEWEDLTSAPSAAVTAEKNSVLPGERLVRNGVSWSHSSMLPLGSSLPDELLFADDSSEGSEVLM
# c-Src = assay: as above
# Fes = Fes (UniProt P07332); assay: as above
# Fes, sequence (P07332 whole entry, looked up): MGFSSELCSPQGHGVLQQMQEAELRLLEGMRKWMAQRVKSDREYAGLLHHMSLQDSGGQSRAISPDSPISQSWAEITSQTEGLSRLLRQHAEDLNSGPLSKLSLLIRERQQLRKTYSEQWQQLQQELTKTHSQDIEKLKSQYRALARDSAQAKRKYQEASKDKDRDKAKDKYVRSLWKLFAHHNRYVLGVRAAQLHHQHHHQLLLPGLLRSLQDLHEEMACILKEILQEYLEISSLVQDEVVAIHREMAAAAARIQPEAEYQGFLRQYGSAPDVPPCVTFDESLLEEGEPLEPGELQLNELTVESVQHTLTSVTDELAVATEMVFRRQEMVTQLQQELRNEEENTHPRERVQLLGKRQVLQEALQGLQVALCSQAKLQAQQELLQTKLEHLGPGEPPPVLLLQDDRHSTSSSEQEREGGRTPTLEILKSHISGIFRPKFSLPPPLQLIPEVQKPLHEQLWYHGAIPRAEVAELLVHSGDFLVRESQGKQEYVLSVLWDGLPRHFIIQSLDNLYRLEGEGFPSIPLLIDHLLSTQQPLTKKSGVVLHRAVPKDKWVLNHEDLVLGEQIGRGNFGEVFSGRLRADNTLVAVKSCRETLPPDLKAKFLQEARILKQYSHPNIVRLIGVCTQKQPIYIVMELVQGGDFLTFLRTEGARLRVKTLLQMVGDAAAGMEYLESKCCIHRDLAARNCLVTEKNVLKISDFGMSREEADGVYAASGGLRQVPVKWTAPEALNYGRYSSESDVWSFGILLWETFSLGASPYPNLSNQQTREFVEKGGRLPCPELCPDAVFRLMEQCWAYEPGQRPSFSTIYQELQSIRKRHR
# Fyn = Fyn (UniProt P06241); assay: as above
# c-Abl (mouse) = assay: as above
# SHP2-C SH2 = assay: SH2 binding enrichment of the phosphorylated peptide, bacterial display (enrichment ratio); higher = better substrate or ligand; peptides without Tyr show the background
# Grb2 SH2 = Grb2 SH2 (UniProt P62993); assay: as above
# c-Src SH2 = assay: as above
# 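Wherever SH2 binding enrichment of the phosphorylated peptide, bacterial display is given: peptide library displayed on the E. coli surface as eCPX fusions, selected cells deep-sequenced, score is each peptide's frequency after selection divided by its frequency in the input.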
# 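Wherever phosphorylation enrichment, bacterial display is given: 11-residue human phosphosite peptides and single-mutation variants displayed on the E. coli surface, counted by deep sequencing, each peptide's frequency after selection divided by its frequency in the unselected input library; frequency after pTyr selection over input frequency; kinase dosed for 20-30% of maximal phosphorylation in three min.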
# EPHB2, sequence (P29323 whole entry, looked up): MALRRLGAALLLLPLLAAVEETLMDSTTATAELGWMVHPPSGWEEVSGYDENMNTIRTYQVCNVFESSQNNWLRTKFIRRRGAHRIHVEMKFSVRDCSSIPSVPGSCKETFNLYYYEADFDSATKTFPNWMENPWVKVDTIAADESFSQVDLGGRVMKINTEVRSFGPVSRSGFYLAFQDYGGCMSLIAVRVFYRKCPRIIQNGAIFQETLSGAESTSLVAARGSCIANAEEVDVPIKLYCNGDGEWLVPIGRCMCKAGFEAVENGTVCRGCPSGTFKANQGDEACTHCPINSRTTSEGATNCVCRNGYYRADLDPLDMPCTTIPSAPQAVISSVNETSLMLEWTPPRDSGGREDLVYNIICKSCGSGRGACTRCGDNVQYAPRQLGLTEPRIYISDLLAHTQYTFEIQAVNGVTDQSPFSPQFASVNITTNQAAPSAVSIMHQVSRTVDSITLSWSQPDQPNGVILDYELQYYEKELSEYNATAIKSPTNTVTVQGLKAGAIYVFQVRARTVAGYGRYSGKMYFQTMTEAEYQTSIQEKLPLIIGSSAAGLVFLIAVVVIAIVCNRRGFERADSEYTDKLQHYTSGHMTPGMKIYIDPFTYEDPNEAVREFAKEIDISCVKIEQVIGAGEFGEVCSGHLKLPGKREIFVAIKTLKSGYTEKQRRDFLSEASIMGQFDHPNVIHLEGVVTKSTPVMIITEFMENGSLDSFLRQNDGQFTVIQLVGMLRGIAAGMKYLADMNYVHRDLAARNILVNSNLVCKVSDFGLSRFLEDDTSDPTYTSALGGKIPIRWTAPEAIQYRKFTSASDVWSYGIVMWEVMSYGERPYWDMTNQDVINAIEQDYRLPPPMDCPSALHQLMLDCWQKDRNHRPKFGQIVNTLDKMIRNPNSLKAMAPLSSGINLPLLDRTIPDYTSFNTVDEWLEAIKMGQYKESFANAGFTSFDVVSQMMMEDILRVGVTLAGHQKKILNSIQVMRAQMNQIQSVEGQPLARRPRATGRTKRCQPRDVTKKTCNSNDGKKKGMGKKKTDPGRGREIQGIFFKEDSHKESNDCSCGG
Sequence,SH2 binding enrichment (SHP2-C SH2),SH2 binding enrichment (Grb2 SH2),SH2 binding enrichment (c-Src SH2),phosphorylation enrichment (EPHB2),phosphorylation enrichment (FGFR1),phosphorylation enrichment (FGFR3),phosphorylation enrichment (AncSZ),phosphorylation enrichment (Hck),phosphorylation enrichment (EPHB1),phosphorylation enrichment (Jak2),phosphorylation enrichment (Fer (mouse)),phosphorylation enrichment (MERTK),phosphorylation enrichment (c-Src),phosphorylation enrichment (Fes),phosphorylation enrichment (Fyn),phosphorylation enrichment (c-Abl (mouse))
DSFATYFRWVL [H2BW1_Y84_R87W],1.32,1.28,0.953,3.54,1.98,1.98,1.53,5.6,1.85,5.48,2.46,4.5,3.21,1.47,2.76,1.04
DVSVVYSEVKT [FCRL4_Y493],11.9,0.789,1.11,0.592,0.775,0.751,0.991,5.21,0.631,1.07,4.14,0.834,4.13,1.05,4.99,1.22
DYDHSYYFIAT [ESD_Y262_G257D],0.589,0.684,0.456,3.27,11.7,9.9,2.9,2.24,5.16,7.22,1.49,3.77,1.81,1.13,1.48,0.877
DYNPNYCFAGK [ALK_Y1096],0.788,0.799,0.532,1.07,0.641,0.778,1.82,0.563,2.62,0.873,0.735,0.906,0.63,1.03,0.607,0.812
DYTEAYNPKIK [CLK1_Y305],0.584,0.813,1.43,0.453,0.624,0.592,1.02,0.596,0.422,0.641,0.358,0.419,0.483,0.913,0.456,0.678
EATKGYPDDPT [G6PD_Y322_L323P],0.538,0.765,0.485,0.673,0.465,0.609,0.901,0.508,0.501,1.07,0.483,0.515,0.493,1.05,0.479,0.786
EDSEFYKAFEE [CASQ2_Y179_YF],0.671,0.767,0.506,0.659,0.482,0.739,1.2,0.543,0.534,1.07,0.4,0.454,0.567,1.21,0.442,0.693
EEGESHVCSSD [DCX_Y125_Y125H],0.83,1.25,0.623,0.545,0.518,0.573,0.96,0.497,0.465,0.945,0.519,0.528,0.525,1.07,0.54,0.673
EGTATYAAAVL [JUP_Y644],0.722,0.847,0.493,1.24,0.394,0.458,0.587,0.987,0.561,0.501,1.06,0.438,0.897,0.661,0.858,0.639
EHAGEYGAEAL [HBA1_Y25_A20E],0.769,0.865,0.674,0.543,0.595,0.681,0.832,0.592,0.423,0.693,0.427,0.455,0.468,0.896,0.489,0.612
EKKDVYKTGEQ [CFH_Y1008_A1010T],0.494,0.771,0.376,0.411,0.478,0.524,0.7,0.561,0.394,0.437,0.447,0.382,0.438,0.663,0.471,0.42
EMQAAYQKVVA [HBD_Y131_Q126E],0.498,0.688,0.65,0.42,0.405,0.574,0.614,0.535,0.393,0.581,0.446,0.399,0.391,0.656,0.472,0.421
ENQEIYQKAFD [KPNA1_Y493],0.737,0.83,0.47,0.576,0.522,0.643,1.43,1.2,0.579,1.08,0.686,0.616,1.45,1.15,0.866,1.03
EQFELHCEMGS [CBL_Y371_Y371H_YF],0.685,0.707,0.606,0.623,0.496,0.802,1.17,0.58,0.71,1.25,0.577,0.526,0.528,1.49,0.523,0.995
EQMASYFGHSV [ITGA2B_Y319],0.596,0.758,0.491,0.488,0.576,0.59,0.662,0.452,0.44,0.842,0.584,0.425,0.553,0.663,0.549,0.573
ERDYTYEELLN [EIF2S2_Y176],0.737,0.823,1.1,0.718,0.579,0.855,1.31,1.32,0.78,1.18,0.65,0.426,0.807,1.28,0.886,0.67

# Now from value to sequence, other results behind:
SH2 binding enrichment (SHP2-C SH2),SH2 binding enrichment (Grb2 SH2),SH2 binding enrichment (c-Src SH2),Sequence,phosphorylation enrichment (EPHB2),phosphorylation enrichment (FGFR1),phosphorylation enrichment (FGFR3),phosphorylation enrichment (AncSZ),phosphorylation enrichment (Hck),phosphorylation enrichment (EPHB1),phosphorylation enrichment (Jak2),phosphorylation enrichment (Fer (mouse)),phosphorylation enrichment (MERTK),phosphorylation enrichment (c-Src),phosphorylation enrichment (Fes),phosphorylation enrichment (Fyn),phosphorylation enrichment (c-Abl (mouse))
0.937,0.79,0.524,DQVEQCKKELE [LMNA_Y259_Y259C],0.625,0.528,0.733,1.2,0.703,0.59,1.1,0.518,0.49,0.562,1.27,0.52,0.746
1.18,2,1.13,DSFSSYCNAVA [SLC20A2_Y436_YF],0.826,0.497,0.812,1.24,0.544,0.642,1.06,0.608,0.503,0.579,1.11,0.509,0.801
0.789,0.724,0.738,DVMDLYKTLRG [NR3C1_Y30_F29L],0.535,0.585,0.861,0.773,0.904,0.483,0.517,0.381,0.431,0.421,0.776,0.437,0.521
0.39,0.696,0.536,DVRQEYSGMIL [PLXND1_Y616_P617S],0.531,0.504,0.565,0.795,0.498,0.432,0.678,0.567,0.35,0.477,0.891,0.434,0.484
0.577,0.82,0.646,ECKEAYHEGEC [PRKN_Y372],0.638,0.626,0.652,1.32,0.654,0.524,1.18,0.498,0.456,0.541,1.26,0.48,0.761
0.734,0.767,0.554,EDDIIYTQDFT [STK11_Y362],0.647,0.652,0.821,1.41,0.742,0.869,1.29,0.655,0.631,1.11,1.37,0.796,0.957
0.563,0.992,0.55,EDGFAYVPLKD [PRIM2_Y208],0.649,0.501,0.759,1.25,0.519,0.567,1.18,0.492,0.42,0.523,1.27,0.479,0.86
0.791,0.997,0.638,EEETDYTPVWC [UROD_Y30_G25E],0.589,0.554,0.876,1.58,0.578,0.689,1.16,0.771,0.504,0.503,1.25,0.484,0.937
0.588,0.884,0.549,EEGNPYFSSTR [MCCC2_Y520_A524T_YF],0.527,0.484,0.621,0.865,0.595,0.509,0.823,0.413,0.349,1.14,0.814,0.505,0.585
1,1.04,0.541,EEQKRYFNAMK [SCN5A_Y1494_K1493R_YF],0.445,0.49,0.46,0.591,0.451,0.353,0.673,0.424,0.41,0.435,0.645,0.348,0.446
0.522,1.32,0.813,EEQKRYYNAMK [SCN5A_Y1494_K1493R],0.49,0.511,0.48,0.623,0.46,0.512,0.479,0.436,0.351,0.327,0.648,0.471,0.352
0.701,0.671,7.14,EESREYDRLYE [PIK3R1_Y463_K459E],0.7,0.708,1.19,1.42,0.865,0.761,1.45,0.641,0.465,0.714,1.44,0.751,1.02
0.803,0.918,0.643,EMFNPCYGLFE [NEDD4L_Y679_Y679C],0.689,0.543,0.713,1.04,1.43,0.489,1.2,1.14,0.765,5.2,1.49,4.58,1.03
0.653,0.773,0.486,EPAVLYNLKER [MYH7_Y103_D107E],0.547,0.506,0.524,0.804,0.72,0.354,0.74,0.332,0.388,0.694,0.854,0.511,0.687
0.809,0.664,0.431,EQKKYYNAMKN [SCN5A_Y1495_K1500N],0.335,0.336,0.382,0.507,0.405,0.388,0.489,0.354,0.356,0.359,0.536,0.292,0.489
0.758,0.772,0.86,EQKRFYNAMKK [SCN5A_Y1495_K1493R_YF],0.309,0.369,0.415,0.69,0.342,0.562,0.562,0.35,0.387,0.441,0.711,0.363,0.698
0.534,0.824,0.648,ESMQSYDLDFP [UNC13B_Y243_D238E_YF],0.5,0.568,0.63,0.909,0.46,0.459,0.777,0.506,0.441,0.49,1.04,0.51,0.538
